T1: human IL-36R (human, UniProt Q9HB29 20-575)
T1 sequence (looked up): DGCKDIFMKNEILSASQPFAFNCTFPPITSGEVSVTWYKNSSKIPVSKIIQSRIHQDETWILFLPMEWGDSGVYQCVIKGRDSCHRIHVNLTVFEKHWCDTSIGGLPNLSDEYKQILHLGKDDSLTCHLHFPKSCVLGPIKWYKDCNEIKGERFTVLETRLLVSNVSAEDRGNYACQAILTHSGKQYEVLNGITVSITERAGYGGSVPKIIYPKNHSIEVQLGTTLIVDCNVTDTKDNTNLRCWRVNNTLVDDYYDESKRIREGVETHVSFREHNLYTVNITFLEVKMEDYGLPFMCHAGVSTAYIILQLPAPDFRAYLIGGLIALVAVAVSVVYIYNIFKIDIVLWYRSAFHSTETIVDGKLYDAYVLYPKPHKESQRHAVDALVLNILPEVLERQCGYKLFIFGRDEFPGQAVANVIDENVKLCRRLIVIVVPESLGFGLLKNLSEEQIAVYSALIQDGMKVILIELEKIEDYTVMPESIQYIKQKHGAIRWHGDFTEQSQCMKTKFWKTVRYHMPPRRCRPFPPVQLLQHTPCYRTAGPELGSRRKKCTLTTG

T2: His-tagged human IL-1 Rrp2/IL-1 R6 protein (human, UniProt Q9HB29 20-335)
T2 construct: Bought reagent; also called Human IL-1 Rrp2/IL-1 R6 Protein, His Tag; ACRO Biosystems IL2-H52H6; not shown: His tag
T2 sequence (looked up): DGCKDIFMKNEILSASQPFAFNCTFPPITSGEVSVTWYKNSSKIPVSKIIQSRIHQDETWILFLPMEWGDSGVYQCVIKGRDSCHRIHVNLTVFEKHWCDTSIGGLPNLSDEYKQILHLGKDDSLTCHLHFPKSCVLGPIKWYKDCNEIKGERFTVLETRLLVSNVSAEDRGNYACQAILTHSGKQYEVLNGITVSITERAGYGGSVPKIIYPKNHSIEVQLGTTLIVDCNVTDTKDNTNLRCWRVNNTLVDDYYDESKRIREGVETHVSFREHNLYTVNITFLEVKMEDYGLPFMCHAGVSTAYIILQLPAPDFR


Columns and labels:
[1] = target: T1, human IL-36R; assay: cell-based or functional assay
[2] = target: T1, human IL-36R; assay: cell-based or functional assay; remark: listed apart in the source
[3] = target: T1, human IL-36R; assay: cell-based or functional assay; remark: listed apart in the source
[4] = target: T1, human IL-36R; assay: cell-based or functional assay; remark: listed apart in the source
[5] = target: T1, human IL-36R; assay: cell-based or functional assay; remark: listed apart in the source
[6] = target: T1, human IL-36R; assay: flow cytometry on CHO-K1 cells expressing human IL-36R
[7] = target: T3, monkey IL-36R (monkey); assay: flow cytometry on CHO-K1 cells expressing monkey IL-36R
T3 construct: whole, on cells

[8] = target: T2, His-tagged human IL-1 Rrp2/IL-1 R6 …; assay: SPR (Biacore 8K), His-tagged antigen captured by anti-His on CM5, antibody as analyte, 1:1 model
Procedure: Series S Sensor Chip CM5 was equilibrated for 20-30 min at room temperature, and then fitted in the instrument. Following the instruction manual for His Capture Kit, an anti-His antibody was immobilized onto the Series S Sensor Chip CM5. An HBS-EP+(10×) solution was diluted 10-fold in ultrapure water as the running buffer. An antigen (His-tagged human IL-1 Rrp2/IL-1 R6 protein) was diluted to 1 μg/ml and 10 μL/min using the running buffer, and loaded during 15 sec to capture around 50 RU of antigen. An antibody sample were diluted to 30 nM, 15 nM, 7.5 nM, 3.75 nM, 1.875 nM, 0.9375 nM, and 0.46875 nM using an equilibration buffer; the running buffer was taken as zero concentration; at 30 μL/min, binding and dissociation were allowed to occur for 120 s and 900 s, respectively; and the chip was regenerated with the glycine solution at pH 1.5. The sample was analyzed by a capture-based single-cycle kinetics program; the corresponding analysis program was selected to analyze the data, and it was confirmed that there was no obvious reference binding; and the Kinetics 1:1 binding model was selected for fitting analysis to acquire the kinetic parameters of the sample.

Binder	IC50, GM-CSF release under IL-36 α stimulation (NCI/ADR-RES cells) [1] [µg/mL]	IC50, GM-CSF release under IL-36 β stimulation (NCI/ADR-RES cells) [1] [µg/mL]	IC50, GM-CSF release under IL-36 γ stimulation (NCI/ADR-RES cells) [1] [µg/mL]	IC50, IL-6 release under IL-36 α stimulation (NCI/ADR-RES cells) [1] [µg/mL]	IC50, IL-6 release under IL-36 β stimulation (NCI/ADR-RES cells) [1] [µg/mL]	IC50, IL-6 release under IL-36 γ stimulation (NCI/ADR-RES cells) [1] [µg/mL]	IC50, IL-8 release under IL-36 α stimulation (NCI/ADR-RES cells) [1] [µg/mL]	IC50, IL-8 release under IL-36 β stimulation (NCI/ADR-RES cells) [1] [µg/mL]	IC50, IL-8 release under IL-36 γ stimulation (NCI/ADR-RES cells) [1] [µg/mL]	IC50, pNF-κB under IL-36 β stimulation (NCI/ADR-RES cells) [1] [ng/ml]	HuIL-6 detected in NCI/ADR-RES under IL-36β stimulation IC50 [2] [µg/mL]	HuIL-6 detected in HIF under IL-36α stimulation IC50 [3] [µg/mL]	HuIL-6 detected in HIF under IL-36β stimulation IC50 [4] [µg/mL]	pNFκB detected in HIF under IL-36β stimulation IC50 [5] [µg/mL]	EC50 [6] [µg/mL]	EC50 [7] [µg/mL]	Kd [8] [nM]	koff [8] [s⁻¹]	kon [8] [M⁻¹ s⁻¹]
humanized anti-IL-36R antibody 900527 (antibody, V domains shown, IgG1 (human IgG1 L234A/L235A, human kappa); also called HB0034) VH: QVQLVQSGAEVKKPGASVKVSCKASGYTFTSSWMHWAKQAPGQGLEWIGEIHPNSAKTNYNQKFQGRVTMTRDTSISTAYMELSRLRSDDTAVYYCARVDYGKPWFAYWGQGTLVTVSS VL: QIVLTQSPGTLSLSPGERATLSCRASSSVSSSYLHWYQQKPGQAPRLWIYSTSSRATGIPDRFSGSGSGTDFTLTISRLEPEDFATYYCQQFQSSPLTFGQGTKLEIK	0.022	0.0174	0.0198	0.015	0.0139	0.0162	0.0315	0.0223	0.0198	71.4	0.00887	0.0479	0.0546	0.105	0.062	0.0595	0.0452	4.37e-05	967000
humanized anti-IL-36R antibody 900534 (antibody, V domains shown, IgG1 (human IgG1 L234A/L235A, human kappa)) VH: QVQLVQSGAEVKKPGASVKVSCKASGYTFTSSWMHWAKQAPGQGLEWIGEIHPNSAKTNYNQKFQGRVTMTRDTSISTAYMELSRLRSDDTAVYYCARVDYGKPWFAYWGQGTLVTVSS VL: QIVLTQSPGTLSLSPGERATLSCRASSSVSSSYLHWYQQKPGQAPRLLIYSTSSRATGIPDRFSGSGSGTDFTLTISRLEPEDFATYYCQQFQSSPLTFGQGTKLEIK	0.0202	0.0186	0.021	0.0216	0.0168	0.0176	0.0304	0.022	0.018	64.9							0.0579	5.1e-05	881000
humanized anti-IL-36R antibody 900513 (antibody, V domains shown, IgG1; built from the chimeric expression plasmids (human IgG1 L234A/L235A, human kappa)) VH: QVQLVQSGAEVKKPGASVKVSCKASGYTFTSSWMHWAKQAPGQGLEWIGEIHPNSAKTNYNQKFQGRVTMTRDTSISTAYMELSRLRSDDTAVYYCARVDYGKPWFAYWGQGTLVTVSS VL: EIVLTQSPGTLSLSPGERATLSCSASSSVSSSYLHWYQQKPGQAPRLWIYSTSNRATGIPDRFSGSGSGTDFTLTISRLEPEDFATYYCQQFQSSPLTFGQGTKLEIK	0.0206	0.0184	0.0179	0.0124	0.0223	0.0121	0.0398	0.0221	0.018	105							0.0148	1.34e-05	904000
anti-IL-36R chimeric antibody 900497 (antibody, V domains shown, Human-mouse chimera: human IgG1 heavy-chain constant region with L234A and L235A (Eu numbering), human kappa constant region) VH: QVQLQQTGSVLVRPGTSVKLSCKASGYTFTSSWMHWAKQRPGQGLEWIGEIHPNSAKTNYNEKFKGKATLTVDTFSSTAYVDLSSLASEDSAVYYCARVDYGKPWFAYWGQGTLVTVSA VL: QIVLTQSPTIMSASPGERVTMTCSASSSVSSSYLHWYQQKPGSSPKLWIYSTSNLASGVPARFSGSGSGTSYSLTINSMEAEDAATYYCQQFQSSPLTFGAGTKLGLK	0.0328	0.0224	0.0288	0.0332	0.0204	0.0198	0.0439	0.0292	0.0284	115		0.146	0.0837	0.1			0.0254	1.68e-05	660000

Reference: patent US20230399409A1 (SHANGHAI HUAOTA BIOPHARMACEUTICAL, published 2023)
